Results reported in publication PMC6373967.
pKd: −log10 of the molar value. Read-outs that look alike come from different tables or passages of the source. Values belong to the substance of their own block, whether it stands above or below them.

Experiments:
nectin-1 (Homo sapiens) = nectin-1 (Homo sapiens) (UniProt Q15223); settings: cited from earlier work
nectin-1(143t) (human) = assay: SPR; BIAcore 3000, 25°C, HBS-EP pH 7.4; about 2000 RU of nectin-1(346t) or nectin-1(143t) amine-coupled to a CM5 chip; hCD96t flowed at 50 ul/min, 2 min association and 2 min dissociation; 1:1 Langmuir model with drifting baseline, global fit
nectin-1(346t) (human) [1] = target: nectin-1(346t) (human) (UniProt Q15223); assay: as above
nectin-1(346t) (human) [2] = target: nectin-1(346t) (human) (UniProt Q15223); assay: as above; remark: listed apart in the source
CD155 (Homo sapiens) = CD155 (Homo sapiens) (UniProt P15151); settings: cited from earlier work

Chain of nectin-1 (Q15223 31-355): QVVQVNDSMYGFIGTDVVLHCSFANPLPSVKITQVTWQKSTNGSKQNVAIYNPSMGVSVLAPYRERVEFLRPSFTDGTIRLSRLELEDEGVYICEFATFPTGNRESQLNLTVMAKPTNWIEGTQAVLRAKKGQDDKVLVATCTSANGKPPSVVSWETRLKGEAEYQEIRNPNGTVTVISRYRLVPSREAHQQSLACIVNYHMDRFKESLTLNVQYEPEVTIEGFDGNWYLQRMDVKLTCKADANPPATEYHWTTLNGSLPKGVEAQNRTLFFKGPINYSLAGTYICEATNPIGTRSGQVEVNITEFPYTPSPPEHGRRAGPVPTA

Substance: nectin-1 (from UniProt Q15223)
pKd (nectin-1 (Homo sapiens)): 4.76

pKd (nectin-1(143t) (human)): 5.49
koff (nectin-1(143t) (human)): 0.012 s⁻¹
kon (nectin-1(143t) (human)): 3200 M⁻¹ s⁻¹
pKd (nectin-1(346t) (human) [1]): 5.61
koff (nectin-1(346t) (human) [1]): 0.0094 s⁻¹
kon (nectin-1(346t) (human) [1]): 3900 M⁻¹ s⁻¹
pKd (nectin-1(346t) (human) [2]): 5.63
Substance: hCD96(516t) (domain or fragment)

Substance: CD96 (from UniProt P40200)
pKd (CD155 (Homo sapiens)): 7.42
